Measured values published in patent US20230265151A1, “GIP/GLP1 CO-AGONIST COMPOUNDS” (priority 2020, published 2023).

T1: human GIP receptor (human, UniProt P48546 22-466)
T1 sequence (looked up): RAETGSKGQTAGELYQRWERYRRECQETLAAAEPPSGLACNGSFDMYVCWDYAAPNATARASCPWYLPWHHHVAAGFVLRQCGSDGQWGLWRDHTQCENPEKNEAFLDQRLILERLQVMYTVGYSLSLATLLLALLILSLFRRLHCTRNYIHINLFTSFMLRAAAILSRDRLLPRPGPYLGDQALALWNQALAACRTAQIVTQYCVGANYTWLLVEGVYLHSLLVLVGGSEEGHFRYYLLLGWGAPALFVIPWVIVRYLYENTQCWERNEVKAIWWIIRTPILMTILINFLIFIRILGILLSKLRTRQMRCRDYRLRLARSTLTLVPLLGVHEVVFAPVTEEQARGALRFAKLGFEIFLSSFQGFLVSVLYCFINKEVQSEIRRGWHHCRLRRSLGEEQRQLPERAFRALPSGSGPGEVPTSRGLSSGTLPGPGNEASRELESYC

T2: human GIP receptor (human) (UniProt P48546)
T2 sequence (looked up): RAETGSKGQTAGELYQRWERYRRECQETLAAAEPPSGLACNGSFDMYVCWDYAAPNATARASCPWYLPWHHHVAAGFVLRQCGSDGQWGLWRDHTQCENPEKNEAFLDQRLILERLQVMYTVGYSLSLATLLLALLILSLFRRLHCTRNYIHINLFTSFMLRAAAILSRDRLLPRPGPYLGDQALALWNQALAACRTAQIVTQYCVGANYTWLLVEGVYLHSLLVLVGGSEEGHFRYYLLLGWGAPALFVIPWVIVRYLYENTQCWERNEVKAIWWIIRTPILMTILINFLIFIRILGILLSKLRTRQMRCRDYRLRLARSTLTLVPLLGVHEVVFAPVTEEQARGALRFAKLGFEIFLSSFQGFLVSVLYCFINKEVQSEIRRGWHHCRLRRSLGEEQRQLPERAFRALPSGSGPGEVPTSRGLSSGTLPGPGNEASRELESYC

B1: Example 483 (peptide)
peptide: YXEGTXTSDXXIXLDXQAQXXFIKXLIKGGPSSGAPPPS
modifications: Y-Aib-EGT-αMeF(2F)-TSD-4Pal-Aib-I-αMeL-LD-Orn-QAQ-Aib-Orn-FIK((γ-Glu)-(2-[2-(2-Amino-ethoxy)-ethoxy]-acetyl)2-(γ-Glu)-(10-(4-carboxyphenoxy)decanoyl))-αMeY-LIK((γ-Glu)-(2-[2-(2-Amino-ethoxy)-ethoxy]-acetyl)2-(γ-Glu)-(10-(4-carboxyphenoxy)decanoyl))GGPSSGAPPPS-NH2
B2: Example 471 (peptide)
peptide: YXEGTXTSDXXIXLDXQAQXXFIKXLIKGGPSSGAPPPS
modifications: Y-Aib-EGT-αMeF(2F)-TSD-4Pal-Aib-I-αMeL-LD-Orn-QAQ-Aib-Orn-FIK((2-[2-(2-Amino-ethoxy)-ethoxy]-acetyl)2--Trx-(γ-Glu)-(10-(4-carboxyphenoxy)decanoyl))-αMeY-LIK(((2-[2-(2-Amino-ethoxy)-ethoxy]-acetyl)2--Trx-(γ-Glu)-(10-(4-carboxyphenoxy)decanoyl))GGPSSGAPPPS-NH2)
B3: Example 476 (peptide)
peptide: YXEGTXTSDXXIXLDXQAQXXFIKXLIKGGPSSGAPPPS
modifications: Y-Aib-EGT-αMeF(2F)-TSD-4Pal-Aib-I-αMeL-LD-Orn-QAQ-Aib-Orn-FIK((2-[2-(2-Amino-ethoxy)-ethoxy]-acetyl)3-(γ-Glu)-CO-(CH2)12-CO2H)-αMeY-LIK((2-[2-(2-Amino-ethoxy)-ethoxy]-acetyl)3-(γ-Glu)-CO-(CH2)12-CO2H)GGPSSGAPPPS-NH2
B4: Example 360 (peptide)
peptide: YXEGTXTSDXXIXLDXKAQXKFIXXLIEGGPSSGAPPPS
modifications: Y-Aib-EGT-αMeF(2F)-TSD-4Pal-Aib-I-αMeL-LD-Orn-K((2-[2-(2-Amino-ethoxy)-ethoxy]-acetyl)-(γ-Glu)-(10-(4-carboxyphenoxy)decanoyl))AQ-Aib-K((2-[2-(2-Amino-ethoxy)-ethoxy]-acetyl)-(γ-Glu)-(10-(4-carboxyphenoxy)decanoyl))FI-(D-Glu)-αMeY-LIEGGPSSGAPPPS-NH2
B5: Example 425 (peptide)
peptide: YXEGTXTSDKXIXLDXKAQXEFIXXLIEGGPSSGAPPPS
modifications: Y-Aib-EGT-αMeF(2F)-TSDK((2-[2-(2-Amino-ethoxy)-ethoxy]-acetyl)-(γ-Glu)-CO-(CH2)10-CH3)-Aib-I-αMeL-LD-Orn-K((2-[2-(2-Amino-ethoxy)-ethoxy]-acetyl)-(γ-Glu)-CO-(CH2)10-CH3)AQ-Aib-EFI-(D-Glu)-αMeY-LIEGGPSSGAPPPS-NH2
B6: Example 477 (peptide)
peptide: YXEGTXTSDXXIXLDXQAQXXFIKXLIKGGPSSGAPPPS
modifications: Y-Aib-EGT-αMeF(2F)-TSD-4Pal-Aib-I-αMeL-LD-Orn-QAQ-Aib-Orn-FIK((2-[2-(2-Amino-ethoxy)-ethoxy]-acetyl)3-(γ-Glu)--(10-(4-carboxyphenoxy)decanoyl))-αMeY-LIK((2-[2-(2-Amino-ethoxy)-ethoxy]-acetyl)3-(γ-Glu)--(10-(4-carboxyphenoxy)decanoyl))GGPSSGAPPPS-NH2
B7: Example 482 (peptide)
peptide: YXEGTXTSDXXIXLDXQAQXXFIKXLIKGGPSSGAPPPS
modifications: Y-Aib-EGT-αMeF(2F)-TSD-4Pal-Aib-I-αMeL-LD-Orn-QAQ-Aib-Orn-FIK((γ-Glu)-(2-[2-(2-Amino-ethoxy)-ethoxy]-acetyl)2-(γ-Glu)-CO-(CH2)12-CO2H)-αMeY-LIK((γ-Glu)-(2-[2-(2-Amino-ethoxy)-ethoxy]-acetyl)2-(γ-Glu)-CO-(CH2)12-CO2H)GGPSSGAPPPS-NH2
B8: Example 472 (peptide)
peptide: YXEGTXTSDXXIXLDXQAQXXFIKXLIKGGPSSGAPPPS
modifications: Y-Aib-EGT-αMeF(2F)-TSD-4Pal-Aib-I-αMeL-LD-Orn-QAQ-Aib-Orn-FIK((2-[2-(2-Amino-ethoxy)-ethoxy]-acetyl)-Trx-(γ-Glu)-CO-(CH2)12-CO2H)-αMeY-LIK(((2-[2-(2-Amino-ethoxy)-ethoxy]-acetyl)-Trx-(γ-Glu)-CO-(CH2)12-CO2H)GGPSSGAPPPS-NH2)
B9: Example 493 (peptide)
peptide: YXEGTXTSDXXIXLDXQAQXXFIKXLIKGGPSSGAPPPS
modifications: Y-Aib-EGT-αMeF(2F)-TSD-4Pal-Aib-I-αMeL-LD-Orn-QAQ-Aib-4Pal-FIK((2-[2-(2-Amino-ethoxy)-ethoxy]-acetyl)2-(γ-Glu)-(10-(4-carboxyphenoxy)decanoyl))-αMeY-LIK((2-[2-(2-Amino-ethoxy)-ethoxy]-acetyl)2-(γ-Glu)-(10-(4-carboxyphenoxy)decanoyl))GGPSSGAPPPS-NH2
B10: Example 473 (peptide)
peptide: YXEGTXTSDXXIXLDXQAQXXFIKXLIKGGPSSGAPPPS
modifications: Y-Aib-EGT-αMeF(2F)-TSD-4Pal-Aib-I-αMeL-LD-Orn-QAQ-Aib-Orn-FIK((2-[2-(2-Amino-ethoxy)-ethoxy]-acetyl)-Trx-(γ-Glu)-(10-(4-carboxyphenoxy)decanoyl))-αMeY-LIK(((2-[2-(2-Amino-ethoxy)-ethoxy]-acetyl)-Trx-(γ-Glu)-(10-(4-carboxyphenoxy)decanoyl))GGPSSGAPPPS-NH2)
B11: Example 485 (peptide)
peptide: YXEGTXTSDXXIXLDXQAQXXFIKXLIKGGPSSGAPPPS
modifications: Y-Aib-EGT-αMeF(2F)-TSD-4Pal-Aib-I-αMeL-LD-Orn-QAQ-Aib-Orn-FIK((2-[2-(2-Amino-ethoxy)-ethoxy]-acetyl)-(γ-Glu)-(2-[2-(2-Amino-ethoxy)-ethoxy]-acetyl)-(γ-Glu)-(10-(4-carboxyphenoxy)decanoyl))-αMeY-LIK((2-[2-(2-Amino-ethoxy)-ethoxy]-acetyl)-(γ-Glu)-(2-[2-(2-Amino-ethoxy)-ethoxy]-acetyl)-(γ-Glu)-(10-(4-carboxyphenoxy)decanoyl))GGPSSGAPPPS-NH2
B12: Example 416 (peptide)
peptide: YXEGTXTSDXXIXLDXKAQXXFIXXLIKGGPSSGAPPPS
modifications: Y-Aib-EGT-αMeF(2F)-TSD-4Pal-Aib-I-αMeL-LD-Orn-K((2-[2-(2-Amino-ethoxy)-ethoxy]-acetyl)2-(γ-Glu)-CO-(CH2)10-CH3)AQ-Aib-4Pal-FI-(D-Glu)-αMeY-LIK((2-[2-(2-Amino-ethoxy)-ethoxy]-acetyl)2-(γ-Glu)-CO-(CH2)10-CH3)GGPSSGAPPPS-NH2
B13: Example 484 (peptide)
peptide: YXEGTXTSDXXIXLDXQAQXXFIKXLIKGGPSSGAPPPS
modifications: Y-Aib-EGT-αMeF(2F)-TSD-4Pal-Aib-I-αMeL-LD-Orn-QAQ-Aib-Orn-FIK((2-[2-(2-Amino-ethoxy)-ethoxy]-acetyl)-(γ-Glu)-(2-[2-(2-Amino-ethoxy)-ethoxy]-acetyl)-(γ-Glu)-CO-(CH2)12-CO2H)-αMeY-LIK((2-[2-(2-Amino-ethoxy)-ethoxy]-acetyl)-(γ-Glu)-(2-[2-(2-Amino-ethoxy)-ethoxy]-acetyl)-(γ-Glu)-CO-(CH2)12-CO2H)GGPSSGAPPPS-NH2
B14: Example 487 (peptide)
peptide: YXEGTXTSDXXIXLDXQAQXXFIKXLIKGGPSSGAPPPS
modifications: Y-Aib-EGT-αMeF(2F)-TSD-4Pal-Aib-I-αMeL-LD-Orn-QAQ-Aib-Orn-FIK((2-[2-(2-Amino-ethoxy)-ethoxy]-acetyl)-(γ-Glu)3-(10-(4-carboxyphenoxy)decanoyl))-αMeY-LIK((2-[2-(2-Amino-ethoxy)-ethoxy]-acetyl)-(γ-Glu)3--(10-(4-carboxyphenoxy)decanoyl))GGPSSGAPPPS-NH2

What was measured:
Assay in all cases: cell-based or functional assay
human GIP receptor = target: T1, human GIP receptor
human GLP-1 receptor = human GLP-1 receptor (human, UniProt P43220 24-463)
human glucagon receptor = human glucagon receptor (human, UniProt P47871 26-477)
Chain of human glucagon receptor (P47871 26-477): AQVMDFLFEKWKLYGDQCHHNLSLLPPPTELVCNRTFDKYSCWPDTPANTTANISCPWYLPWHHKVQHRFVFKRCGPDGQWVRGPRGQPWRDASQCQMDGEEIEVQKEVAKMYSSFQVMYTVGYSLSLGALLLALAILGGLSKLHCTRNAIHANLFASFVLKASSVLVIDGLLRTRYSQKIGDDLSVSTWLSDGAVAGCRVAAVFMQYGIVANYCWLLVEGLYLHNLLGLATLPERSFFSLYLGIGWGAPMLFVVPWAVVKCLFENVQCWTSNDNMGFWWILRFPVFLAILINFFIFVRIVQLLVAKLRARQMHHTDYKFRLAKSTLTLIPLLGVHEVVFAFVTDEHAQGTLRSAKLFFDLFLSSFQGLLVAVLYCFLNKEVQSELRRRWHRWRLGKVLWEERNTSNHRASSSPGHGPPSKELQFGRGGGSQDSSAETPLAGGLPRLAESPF

hGLP-1R = hGLP-1R (Homo sapiens, UniProt P43220)
[1] = target: T2, human GIP receptor (human)
[2] = target: human glucagon receptor (human) (UniProt P47871)

| Binder | cAMP EC50 (1.0% HSA) (human GIP receptor) [nM] | cAMP EC50 (1.0% HSA) (human GLP-1 receptor) [nM] | cAMP EC50 (1.0% HSA) (human glucagon receptor) [µM] | cAMP EC50 (hGLP-1R) [nM] | cAMP Emax (hGLP-1R) [%] | cAMP EC50 [1] [nM] | cAMP Emax [1] [%] | cAMP EC50 [2] [µM] | cAMP Emax (1.0% HSA) (human GIP receptor) [%] |
| --- | --- | --- | --- | --- | --- | --- | --- | --- | --- |
| B1 | 0.297 | 3.33 | > 9.95 | – | – | – | – | – | – |
| B2 | 0.568 | 4.36 | > 9.95 | – | – | – | – | – | – |
| B3 | 0.154 | 1.5 | > 9.95 | – | – | – | – | – | – |
| B4 | 1.91 | 28.2 | > 9.95 | 0.301 | 89.8 | 0.0121 | 106 | > 9.95 | – |
| B5 | 0.875 | – | > 9.95 | 0.0965 | 108 | 0.00943 | 97.6 | > 9.95 | 89.9 |
| B6 | 0.163 | 1.56 | > 9.95 | – | – | – | – | – | – |
| B7 | 0.89 | 4.85 | > 9.95 | – | – | – | – | – | – |
| B8 | 0.663 | 7.41 | > 9.95 | – | – | – | – | – | 76.3 |
| B9 | 0.591 | 7.24 | > 9.95 | – | – | – | – | – | – |
| B10 | 0.979 | 7.07 | > 9.95 | – | – | – | – | – | – |
| B11 | 0.536 | 3.9 | > 9.95 | – | – | – | – | – | – |
| B12 | 0.723 | – | > 9.95 | 0.332 | 104 | 0.0214 | 99 | > 9.95 | 83 |
| B13 | 0.453 | 3.66 | > 9.95 | – | – | – | – | – | – |
| B14 | 0.429 | 3.16 | > 9.95 | – | – | – | – | – | – |
